We go through three substances from patent US20050042213.

One data set concerns T1, Z-Arg-Arg-AMC.
T1 sequence: RR

The test system of data set [1] is T2, Z-Pro-Lys-Lys-Glu-AMC (Peptide 1).
T2 sequence: PKKE

Data set [2] has as its system T3, pro-heparanase (H60), purified recombinant human 60 kDa latent heparanase.
T3 sequence: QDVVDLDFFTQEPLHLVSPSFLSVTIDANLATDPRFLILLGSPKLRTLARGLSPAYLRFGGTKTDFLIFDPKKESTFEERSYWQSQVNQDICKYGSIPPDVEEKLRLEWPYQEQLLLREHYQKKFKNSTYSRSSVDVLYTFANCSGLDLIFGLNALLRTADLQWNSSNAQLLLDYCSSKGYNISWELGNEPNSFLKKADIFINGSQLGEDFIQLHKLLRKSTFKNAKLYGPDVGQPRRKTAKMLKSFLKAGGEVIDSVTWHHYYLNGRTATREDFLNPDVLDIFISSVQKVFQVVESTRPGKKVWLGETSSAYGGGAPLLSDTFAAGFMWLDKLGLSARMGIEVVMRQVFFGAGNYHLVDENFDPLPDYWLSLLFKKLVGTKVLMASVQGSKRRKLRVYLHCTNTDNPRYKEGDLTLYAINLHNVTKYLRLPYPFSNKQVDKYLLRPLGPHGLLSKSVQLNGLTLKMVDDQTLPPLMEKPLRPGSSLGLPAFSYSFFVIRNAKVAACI

As to Cathepsin B, the Activity (δfluorescence) (δfluorescence) in the data set with Z-Arg-Arg-AMC was determined as 53300; in data set [1] it was 8930. The “heparanase activity after treatment (DMB assay)” value in data set [2] is on record as “Cathepsin B did not activate the pro-heparanase”. Moreover, the “processing of pro-heparanase in vitro (Western blot)” value in data set [2] was “Cathepsin B in the presence of heparin but not when the cathepsin B inhibitor CA074 was added, also processed the pro-heparanase”.

Take Cathepsin L: the Activity (δfluorescence) (δfluorescence) in data set [1] came out at 0.

On to Cathepsin D, for which, in data set [2], the “heparanase activity after treatment (DMB assay)” value is “Cathepsin D treatment caused an increase in heparanase activity and pepstatin A inhibited this activation”; the “processing of pro-heparanase in vitro (Western blot)” value was “When heparin was included in the reaction mixture, heparanase was processed by cathepsin D and a 45 kDa polypeptide was detected”.
